# Test results: the supplement of paper PMC5998384
# What was measured:
# [1] = tested on: HeLa Kyoto; assay: thermal stability score vs G1/S (z-score of summed log2 fold changes over temperatures); higher = more thermally stable than in G1/S
# [2] = tested on: HeLa Kyoto; assay: solubility change mitosis vs G1/S (difference of NP-40 vs SDS log2 ratios) (log2 ratio difference); higher = more soluble in mitosis
# [3] = tested on: HeLa Kyoto; assay: solubility in G1/S (NP-40 vs SDS abundance) (log2 ratio); higher = more soluble; settings: cell cycle stage: G1/S
# [4] = tested on: HeLa Kyoto; assay: melting temperature (median over replicates), in situ; higher = more thermally stable
# [5] = cell cycle stage: early G1 (4.5 h after nocodazole release)
# 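Wherever melting temperature (median over replicates), in situ is given: HeLa Kyoto cells synchronized by double thymidine or nocodazole block, proteins quantified by TMT10plex mass spectrometry, three independent biological replicates.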
# 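Wherever solubility change mitosis vs G1/S (difference of NP-40 vs SDS log2 ratios) is given: synchronized HeLa Kyoto cells (double thymidine block for G1/S, nocodazole release for mitosis), protein amounts in NP-40 versus SDS lysates quantified by mass spectrometry, three biological replicates.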
# 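Wherever solubility in G1/S (NP-40 vs SDS abundance) is given: HeLa Kyoto cells arrested at G1/S by double thymidine block, proteins quantified by TMT10plex mass spectrometry in mild NP-40 versus SDS extracts, three biological replicates.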
# 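Wherever thermal stability score vs G1/S (z-score of summed log2 fold changes over temperatures) is given: synchronized HeLa Kyoto cells, proteins quantified by TMT10plex mass spectrometry, three biological replicates, mitosis taken 0.5 h after nocodazole release, G1/S directly after double thymidine block.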
# Sequence of IRF2BP2 (chain, as listed by the source): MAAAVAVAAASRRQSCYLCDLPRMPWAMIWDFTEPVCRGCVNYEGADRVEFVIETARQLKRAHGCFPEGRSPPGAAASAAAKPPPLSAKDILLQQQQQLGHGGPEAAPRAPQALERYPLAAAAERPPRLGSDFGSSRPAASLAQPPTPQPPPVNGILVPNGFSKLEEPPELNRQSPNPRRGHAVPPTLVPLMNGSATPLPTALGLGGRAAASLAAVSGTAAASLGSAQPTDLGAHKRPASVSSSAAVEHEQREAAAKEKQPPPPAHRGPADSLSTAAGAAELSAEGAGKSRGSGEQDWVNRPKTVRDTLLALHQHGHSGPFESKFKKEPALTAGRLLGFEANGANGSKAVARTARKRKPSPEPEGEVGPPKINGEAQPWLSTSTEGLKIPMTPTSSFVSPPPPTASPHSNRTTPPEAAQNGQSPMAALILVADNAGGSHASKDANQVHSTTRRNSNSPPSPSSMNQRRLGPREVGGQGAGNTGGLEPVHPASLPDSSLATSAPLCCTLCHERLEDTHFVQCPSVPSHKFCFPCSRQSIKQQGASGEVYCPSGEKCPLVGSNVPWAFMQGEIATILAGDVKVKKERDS
Substance,"thermal stability score [1, 5]",thermal stability score ([1]; cell cycle stage: mitosis),solubility change mitosis (log2) [2],solubility in G1/S (log2) [3],melting temperature ([4]; cell cycle stage: G1/S) [°C],melting temperature ([4]; cell cycle stage: mitosis) [°C]
MAEARKRRELLPLIYHHLLRAGYVRAAREVKEQSGQKCFLAQPVTLLDIYTHWQQTSELGRKRKAEEDAALQAKKTRVSDPISTSESSEEEEEAEAETAKATPRLASTNSSVLGADLPSSMKEKAKAETEKAGKTGNSMPHPATGKTVANLLSGKSPRKSAEPSANTTLVSETEEEGSVPAFGAAAKPGMVSAGQADSSSEDTSSSSDETDVEGKPSVKPAQVKASSVSTKESPARKAAPAPGKVGDVTPQVKGGALPPAKRAKKPEEESESSEEGSESEEEAPAGTRSQVKASEKILQVRAASAPAKGTPGKGATPAPPGKAGAVASQTKAGKPEEDSESSSEESSDSEEETPAAKALLQAKASGKTSQVGAASAPAKESPRKGAAPAPPGKTGPAVAKAQAGKREEDSQSSSEESDSEEEAPAQAKPSGKAPQVRAASAPAKESPRKGAAPAPPRKTGPAAAQVQVGKQEEDSRSSSEESDSDREALAAMNAAQVKPLGKSPQVKPASTMGMGPLGKGAGPVPPGKVGPATPSAQVGKWEEDSESSSEESSDSSDGEVPTAVAPAQEKSLGNILQAKPTSSPAKGPPQKAGPVAVQVKAEKPMDNSESSEESSDSADSEEAPAAMTAAQAKPALKIPQTKACPKKTNTTASAKVAPVRVGTQAPRKAGTATSPAGSSPAVAGGTQRPAEDSSSSEESDSEEEKTGLAVTVGQAKSVGKGLQVKAASVPVKGSLGQGTAPVLPGKTGPTVTQVKAEKQEDSESSEEESDSEEAAASPAQVKTSVKKTQAKANPAAARAPSAKGTISAPGKVVTAAAQAKQRSPSKVKPPVRNPQNSTVLARGPASVPSVGKAVATAAQAQTGPEEDSGSSEEESDSEEEAETLAQVKPSGKTHQIRAALAPAKESPRKGAAPTPPGKTGPSAAQAGKQDDSGSSSEESDSDGEAPAAVTSAQVIKPPLIFVDPNRSPAGPAATPAQAQAASTPRKARASESTARSSSSESEDEDVIPATQCLTPGIRTNVVTMPTAHPRIAPKASMAGASSSKESSRISDGKKQEGPATQVSKKNPASLPLTQAALKVLAQKASEAQPPVARTQPSSGVDSAVGTLPATSPQSTSVQAKGTNKLRKPKLPEVQQATKAPESSDDSEDSSDSSSGSEEDGEGPQGAKSAHTLGPTPSRTETLVEETAAESSEDDVVAPSQSLLSGYMTPGLTPANSQASKATPKLDSSPSVSSTLAAKDDPDGKQEAKPQQAAGMLSPKTGGKEAASGTTPQKSRKPKKGAGNPQASTLALQSNITQCLLGQPWPLNEAQVQASVVKVLTELLEQERKKVVDTTKESSRKGWESRKRKLSGDQPAARTPRSKKKKKLGAGEGGEASVSPEKTSTTSKGKAKRDKASGDVKEKKGKGSLGSQGAKDEPEEELQKGMGTVEGGDQSNPKSKKEKKKSDKRKKDKEKKEKKKKAKKASTKDSESPSQKKKKKKKKTAEQTV [TCOF1],-3.49,-1.37,0.223,-0.327,53.2,52.9
MDGETAEEQGGPVPPPVAPGGPGLGGAPGGRREPKKYAVTDDYQLSKQVLGLGVNGKVLECFHRRTGQKCALKLLYDSPKARQEVDHHWQASGGPHIVCILDVYENMHHGKRCLLIIMECMEGGELFSRIQERGDQAFTEREAAEIMRDIGTAIQFLHSHNIAHRDVKPENLLYTSKEKDAVLKLTDFGFAKETTQNALQTPCYTPYYVAPEVLGPEKYDKSCDMWSLGVIMYILLCGFPPFYSNTGQAISPGMKRRIRLGQYGFPNPEWSEVSEDAKQLIRLLLKTDPTERLTITQFMNHPWINQSMVVPQTPLHTARVLQEDKDHWDEVKEEMTSALATMRVDYDQVKIKDLKTSNNRLLNKRRKKQAGSSSASQGCNNQ [MAPKAPK3],0.292,1.45,-0.141,0.454,49.1,51.2
MASSSTVPLGFHYETKYVVLSYLGLLSQEKLQEQHLSSPQGVQLDIASQSLDQEILLKVKTEIEEELKSLDKEISEAFTSTGFDRHTSPVFSPANPESSMEDCLAHLGEKVSQELKEPLHKALQMLLSQPVTYQAFRECTLETTVHASGWNKILVPLVLLRQMLLELTRRGQEPLSALLQFGVTYLEDYSAEYIIQQGGWGTVFSLESEEEEYPGITAEDSNDIYILPSDNSGQVSPPESPTVTTSWQSESLPVSLSASQSWHTESLPVSLGPESWQQIAMDPEEVKSLDSNGAGEKSENNSSNSDIVHVEKEEVPEGMEEAAVASVVLPARELQEALPEAPAPLLPHITATSLLGTREPDTEVITVEKSSPATSLFVELDEEEVKAATTEPTEVEEVVPALEPTETLLSEKEINAREESLVEELSPASEKKPVPPSEGKSRLSPAGEMKPMPLSEGKSILLFGGAAAVAILAVAIGVALALRKK [BCL2L13],-2.28,-2.76,-0.255,0.337,53.9,54.1
MTIHQFLLLFLFWVCLPHFCSPEIMFRRTPVPQQRILSSRVPRSDGKILHRQKRGWMWNQFFLLEEYTGSDYQYVGKLHSDQDKGDGSLKYILSGDGAGTLFIIDEKTGDIHATRRIDREEKAFYTLRAQAINRRTLRPVEPESEFVIKIHDINDNEPTFPEEIYTASVPEMSVVGTSVVQVTATDADDPSYGNSARVIYSILQGQPYFSVEPETGIIRTALPNMNRENREQYQVVIQAKDMGGQMGGLSGTTTVNITLTDVNDNPPRFPQNTIHLRVLESSPVGTAIGSVKATDADTGKNAEVEYRIIDGDGTDMFDIVTEKDTQEGIITVKKPLDYESRRLYTLKVEAENTHVDPRFYYLGPFKDTTIVKISIEDVDEPPVFSRSSYLFEVHEDIEVGTIIGTVMARDPDSISSPIRFSLDRHTDLDRIFNIHSGNGSLYTSKPLDRELSQWHNLTVIAAEINNPKETTRVAVFVRILDVNDNAPQFAVFYDTFVCENARPGQLIQTISAVDKDDPLGGQKFFFSLAAVNPNFTVQDNEDNTARILTRKNGFNRHEISTYLLPVVISDNDYPIQSSTGTLTIRVCACDSQGNMQSCSAEALLLPAGLSTGALIAILLCIIILLVIVVLFAALKRQRKKEPLILSKEDIRDNIVSYNDEGGGEEDTQAFDIGTLRNPAAIEEKKLRRDIIPETLFIPRRTPTAPDNTDVRDFINERLKEHDLDPTAPPYDSLATYAYEGNDSIAESLSSLESGTTEGDQNYDYLREWGPRFNKLAEMYGGGESDKDS [CDH10],-0.401,-1.3,-0.163,0.0681,55.5,52.5
MEAVLNELVSVEDLLKFEKKFQSEKAAGSVSKSTQFEYAWCLVRSKYNDDIRKGIVLLEELLPKGSKEEQRDYVFYLAVGNYRLKEYEKALKYVRGLLQTEPQNNQAKELERLIDKAMKKDGLVGMAIVGGMALGVAGLAGLIGLAVSKSKS [FIS1],-2.36,-0.553,0.251,0.15,54.2,53.8
IRF2BP2,-0.348,-1.16,-0.0308,0.391,53,52.6
LAMA5,1.64,3.23,0.0689,-0.331,53.3,54.1
MTLESIMACCLSEEAKEARRINDEIERQLRRDKRDARRELKLLLLGTGESGKSTFIKQMRIIHGSGYSDEDKRGFTKLVYQNIFTAMQAMIRAMDTLKIPYKYEHNKAHAQLVREVDVEKVSAFENPYVDAIKSLWNDPGIQECYDRRREYQLSDSTKYYLNDLDRVADPAYLPTQQDVLRVRVPTTGIIEYPFDLQSVIFRMVDVGGQRSERRKWIHCFENVTSIMFLVALSEYDQVLVESDNENRMEESKALFRTIITYPWFQNSSVILFLNKKDLLEEKIMYSHLVDYFPEYDGPQRDAQAAREFILKMFVDLNPDSDKIIYSHFTCATDTENIRFVFAAVKDTILQLNLKEYNLV [GNAQ],-0.77,-0.236,-0.0689,-0.282,54.7,54.3
METLESELTCPICLELFEDPLLLPCAHSLCFNCAHRILVSHCATNESVESITAFQCPTCRHVITLSQRGLDGLKRNVTLQNIIDRFQKASVSGPNSPSETRRERAFDANTMTSAEKVLCQFCDQDPAQDAVKTCVTCEVSYCDECLKATHPNKKPFTGHRLIEPIPDSHIRGLMCLEHEDEKVNMYCVTDDQLICALCKLVGRHRDHQVAALSERYDKLKQNLESNLTNLIKRNTELETLLAKLIQTCQHVEVNASRQEAKLTEECDLLIEIIQQRRQIIGTKIKEGKVMRLRKLAQQIANCKQCIERSASLISQAEHSLKENDHARFLQTAKNITERVSMATASSQVLIPEINLNDTFDTFALDFSREKKLLECLDYLTAPNPPTIREELCTASYDTITVHWTSDDEFSVVSYELQYTIFTGQANVVSLCNSADSWMIVPNIKQNHYTVHGLQSGTKYIFMVKAINQAGSRSSEPGKLKTNSQPFKLDPKSAHRKLKVSHDNLTVERDESSSKKSHTPERFTSQGSYGVAGNVFIDSGRHYWEVVISGSTWYAIGLAYKSAPKHEWIGKNSASWALCRCNNNWVVRHNSKEIPIEPAPHLRRVGILLDYDNGSIAFYDALNSIHLYTFDVAFAQPVCPTFTVWNKCLTIITGLPIPDHLDCTEQLP [MID1],-0.257,-0.0362,-0.0991,-0.197,50.6,50.6
MTDQENNNNISSNPFAALFGSLADAKQFAAIQKEQLKQQSDELPASPDDSDNSVSESLDEFDYSVAEISRSFRSQQEICEQLNINHMIQRIFLITLDNSDPSLKSGNGIPSRCVYLEEMAVELEDQDWLDMSNVEQALFARLLLQDPGNHLINMTSSTTLNLSADRDAGERHIFCYLYSCFQRAKEEITKVPENLLPFAVQCRNLTVSNTRTVLLTPEIYVDQNIHEQLVDLMLEAIQGAHFEDVTEFLEEVIEALILDEEVRTFPEVMIPVFDILLGRIKDLELCQILLYAYLDILLYFTRQKDMAKVFVEYIQPKDPTNGQMYQKTLLGVILSISCLLKTPGVVENHGYFLNPSRSSPQEIKVQEANIHQFMAQFHEKIYQMLKNLLQLSPETKHCILSWLGNCLHANAGRTKIWANQMPEIFFQMYASDAFFLNLGAALLKLCQPFCKPRSSRLLTFNPTYCALKELNDEERKIKNVHMRGLDKETCLIPAVQEPKFPQNYNLVTENLALTEYTLYLGFHRLHDQMVKINQNLHRLQVAWRDAQQSSSPAADNLREQFERLMTIYLSTKTAMTEPQMLQNCLNLQVSMAVLLVQLAIGNEGSQPIELTFPLPDGYSSLAYVPEFFADNLGDFLIFLRRFADDILETSADSLEHVLHFITIFTGSIERMKNPHLRAKLAEVLEAVMPHLDQTPNPLVSSVFHRKRVFCNFQYAPQLAEALIKVFVDIEFTGDPHQFEQKFNYRRPMYPILRYMWGTDTYRESIKDLADYASKNLEAMNPPLFLRFLNLLMNDAIFLLDEAIQYLSKIKIQQIEKDRGEWDSLTPEARREKEAGLQMFGQLARFHNIMSNETIGTLAFLTSEIKSLFVHPFLAERIISMLNYFLQHLVGPKMGALKVKDFSEFDFKPQQLVSDICTIYLNLGDEENFCATVPKDGRSYSPTLFAQTVRVLKKINKPGNMIMAFSNLAERIKSLADLQQQEEETYADACDEFLDPIMSTLMCDPVVLPSSRVTVDRSTIARHLLSDQTDPFNRSPLTMDQIRPNTELKEKIQRWLAERKQQKEQLE [UBE4A],-0.166,0.519,-0.0832,-0.123,49.4,50
MASNVTNKTDPRSMNSRVFIGNLNTLVVKKSDVEAIFSKYGKIVGCSVHKGFAFVQYVNERNARAAVAGEDGRMIAGQVLDINLAAEPKVNRGKAGVKRSAAEMYGSVTEHPSPSPLLSSSFDLDYDFQRDYYDRMYSYPARVPPPPPIARAVVPSKRQRVSGNTSRRGKSGFNSKSGQRGSSKSGKLKGDDLQAIKKELTQIKQKVDSLLENLEKIEKEQSKQAVEMKNDKSEEEQSSSSVKKDETNVKMESEGGADDSAEEGDLLDDDDNEDRGDDQLELIKDDEKEAEEGEDDRDSANGEDDS [HNRNPC],7.33,16.5,0.36,-0.0638,47.4,49.5
